From US5405758

Molecular target: mite allergen fused protein expressed by pAEX201 in E. coli pop2136 (purified recombinant mite allergen fused protein) (Dermatophagoides farinae)
Settings: scale: times lower concentration at the inflexion point than the crude mite body antigen

In the case of “blood cells from a mite asthma patient, washed with Hanks' solution (cells without a defined receptor)”, the histamine release, percent ratio of the released histamine (HPLC) is reported as > 200.
